Results on one molecule are retold here after patent US10617701B2, “Nutritional compositions containing phosphatidylethanolamine, sphingomyelin and docosahexaenoic acid” (Mead Johnson Nutrition Company, priority 2015, dated 2020).

The assay has as its system embryonic mouse cortical cells. Briefly: Functional neuronal maturation of cortical networks on microelectrode arrays (MEA recording, chronic treatment). The assay is classed as cell-based. The settings on record: cortical networks on MEAs. How it is done:
Cortical cells were grown on multi-well microelectrode arrays (MEAs) and treated with 10 different experimental series, including different combinations of test agents (PE, SM, LF and DHA) and the activity was recoded at 4 different time points during the 4 weeks of functional neuronal maturation Cells growing on glass slides were treated in parallel for morphological and cell population analysis. These experiments aimed to elucidate whether the test compounds affect the functional and morphological neuronal maturation […] (see FIG. 1). […]
Primary cell culture for MEA recordings: In brief, frontal cortex tissue was harvested from embryonic day […] NMRI mice. […] Cultures on MEAs were incubated at 37° C. in a 10% CO2 atmosphere until ready for use, which usually is four weeks to three months after seeding. […]
Multichannel Recording: After establishing a stable activity pattern after 4 weeks, the neuronal networks on MEA chips are employed for substance testing. […] The signals routinely recorded by these neurochips are located in a range of 15-1800 […] . […]

B1: lactoferrin (protein, UniProt P24627 20-708, looked up)
Lactotransferrin: APRKNVRWCTISQPEWFKCRRWQWRMKKLGAPSITCVRRAFALECIRAIAEKKADAVTLDGGMVFEAGRDPYKLRPVAAEIYGTKESPQTHYYAVAVVKKGSNFQLDQLQGRKSCHTGLGRSAGWIIPMGILRPYLSWTESLEPLQGAVAKFFSASCVPCIDRQAYPNLCQLCKGEGENQCACSSREPYFGYSGAFKCLQDGAGDVAFVKETTVFENLPEKADRDQYELLCLNNSRAPVDAFKECHLAQVPSHAVVARSVDGKEDLIWKLLSKAQEKFGKNKSRSFQLFGSPPGQRDLLFKDSALGFLRIPSKVDSALYLGSRYLTTLKNLRETAEEVKARYTRVVWCAVGPEEQKKCQQWSQQSGQNVTCATASTTDDCIVLVLKGEADALNLDGGYIYTAGKCGLVPVLAENRKSSKHSSLDCVLRPTEGYLAVAVVKKANEGLTWNSLKDKKSCHTAVDRTAGWNIPMGLIVNQTGSCAFDEFFSQSCAPGADPKSRLCALCAGDDQGLDKCVPNSKEKYYGYTGAFRCLAEDVGDVAFVKNDTVWENTNGESTADWAKNLNREDFRLLCLDGTRKPVTEAQSCHLAVAPNHAVVSRSDRAAHVKQVLLHQQALFGKNGKNCPDKFCLFKSETKNLLFNDNTECLAKLGGRPTYEEYLGTEYVTAIANLKKCSTSPLLEACAFLTR
For B1, the “acute effect on neuronal network activity in vitro” value is recorded as “acutely affect neuronal network activity”.
